Key:
[1] = target: human SIRPγ on primary human T-cells (human) (UniProt Q9P1W8); test: flow cytometry, naive resting human CD3+ T cells
[2] = target: human SIRPγ on primary human T-cells (human) (UniProt Q9P1W8); test: flow cytometry, naive resting human CD4+ T cells
[3] = target: human SIRPγ on primary human T-cells (human) (UniProt Q9P1W8); test: flow cytometry, naive resting human CD8+ T cells
[4] = target: human SIRPγ on primary human T-cells (human) (UniProt Q9P1W8); test: flow cytometry, anti-CD3/CD28-stimulated human CD3+ T cells
[5] = target: human SIRPγ on primary human T-cells (human) (UniProt Q9P1W8); test: flow cytometry, anti-CD3/CD28-stimulated human CD4+ T cells
[6] = target: human SIRPγ on primary human T-cells (human) (UniProt Q9P1W8); test: flow cytometry, anti-CD3/CD28-stimulated human CD8+ T cells

Sequence of human SIRPγ on primary human T-cells (human) (Q9P1W8 29-387 limits assumed): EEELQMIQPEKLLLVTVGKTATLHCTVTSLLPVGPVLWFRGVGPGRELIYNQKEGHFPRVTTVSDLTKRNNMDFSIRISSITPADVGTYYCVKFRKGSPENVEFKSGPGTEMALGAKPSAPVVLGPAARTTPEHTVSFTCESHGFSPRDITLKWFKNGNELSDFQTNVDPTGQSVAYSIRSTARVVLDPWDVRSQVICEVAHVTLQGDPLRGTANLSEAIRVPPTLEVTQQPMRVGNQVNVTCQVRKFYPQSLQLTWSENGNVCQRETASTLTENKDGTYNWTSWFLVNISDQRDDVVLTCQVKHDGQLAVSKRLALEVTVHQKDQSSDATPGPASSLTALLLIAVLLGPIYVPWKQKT

EC50 (read off the curve) [1]: 0.2 µg/mL
EC50 (read off the curve) [2]: 0.04 µg/mL
EC50 (read off the curve) [3]: 0.09 µg/mL
EC50 (read off the curve) [4]: 0.4 µg/mL
EC50 (read off the curve) [5]: 0.05 µg/mL
EC50 (read off the curve) [6]: 0.1 µg/mL
Substance: mouse monoclonal antibody against human SIRPγ, clone OX-119 (ThermoFisher Scientific MA5-28215)

From US20240400677A1
